Data as given in article PMC9482650, “Quantitative fragmentomics allow affinity mapping of interactomes” (Nature Communications, 2022).
Residue numbers refer to the chain shown, from its start.

Experiments:
Test in all cases: holdup assay
Parameters in all cases: key: below the threshold = too weak to quantify, mostly under pKd 3.1 to 4
MAGI2_4, Q86UL8 = target: MAGI2_4, Q86UL8
SYNJ2BP, P57105 = target: T1, SYNJ2BP, P57105; settings: plain residues with an end cap or a label only (N-terminal biotin on a linker: ahx)
T1 sequence (P57105 8-110, limits assumed, looked up): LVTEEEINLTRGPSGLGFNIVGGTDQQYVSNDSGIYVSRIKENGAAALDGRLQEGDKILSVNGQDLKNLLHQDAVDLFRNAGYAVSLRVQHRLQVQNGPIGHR

SNTB1, Q13884 = target: T2, SNTB1, Q13884; settings: plain residues with an end cap or a label only (N-terminal biotin on a linker: ahx)
T2 sequence (Q13884 107-205, limits assumed, looked up): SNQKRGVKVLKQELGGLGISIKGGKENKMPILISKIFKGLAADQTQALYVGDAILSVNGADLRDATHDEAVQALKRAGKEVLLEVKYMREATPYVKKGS

PARD3_3, Q8TEW0 = settings: plain residues with an end cap or a label only (N-terminal biotin on a linker: ahx)
ARHGEF12, Q9NZN5-2 = settings: plain residues with an end cap or a label only (N-terminal biotin on a linker: ahx)
SNTA1, Q13424 = target: T3, SNTA1, Q13424
T3 sequence (Q13424 82-180, limits assumed, looked up): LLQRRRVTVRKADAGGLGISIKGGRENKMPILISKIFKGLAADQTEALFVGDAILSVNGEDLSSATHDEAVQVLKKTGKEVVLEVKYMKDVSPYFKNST

SNX27, Q96L92 = settings: plain residues with an end cap or a label only (N-terminal biotin on a linker: ahx)
SHANK1, Q9Y566 = target: T4, SHANK1, Q9Y566; settings: plain residues with an end cap or a label only (N-terminal biotin on a linker: ahx)
T4 sequence (Q9Y566 658-767, limits assumed, looked up): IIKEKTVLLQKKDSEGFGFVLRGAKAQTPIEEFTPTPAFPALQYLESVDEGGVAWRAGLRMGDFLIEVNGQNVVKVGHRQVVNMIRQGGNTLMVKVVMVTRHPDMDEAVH

DLG2_2, Q15700 = settings: plain residues with an end cap or a label only (N-terminal biotin on a linker: ahx)
DLG3_3, Q92796 = target: T5, DLG3_3, Q92796; settings: plain residues with an end cap or a label only (N-terminal biotin on a linker: ahx)
T5 sequence (Q92796 374-475, limits assumed, looked up): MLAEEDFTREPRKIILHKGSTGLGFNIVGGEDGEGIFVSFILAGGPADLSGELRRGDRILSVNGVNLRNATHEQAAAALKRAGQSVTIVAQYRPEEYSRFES

MAGI2_5, Q86UL8 = settings: plain residues with an end cap or a label only (N-terminal biotin on a linker: ado-ado)
HTRA1, Q92743 = settings: plain residues with an end cap or a label only (N-terminal biotin on a linker: ado-ado)
Inadl_8, Q8NI35 = settings: plain residues with an end cap or a label only (N-terminal biotin on a linker: ado-ado)
MAGI3_2, Q5TCQ9 = settings: plain residues with an end cap or a label only (N-terminal biotin on a linker: ado-ado)
DFNB31_1, Q9P202 = target: T6, DFNB31_1, Q9P202; settings: plain residues with an end cap or a label only (N-terminal biotin on a linker: ado-ado)
T6 sequence (Q9P202 135-233, limits assumed, looked up): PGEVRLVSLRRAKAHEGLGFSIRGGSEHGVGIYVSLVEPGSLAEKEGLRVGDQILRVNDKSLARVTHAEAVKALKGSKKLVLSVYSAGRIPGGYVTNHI

TJP2_1, Q9UDY2 = settings: plain residues with an end cap or a label only (N-terminal biotin on a linker: ado-ado)
DLG4_1, P78352 = settings: plain residues with an end cap or a label only (N-terminal biotin on a linker: ado-ado)
MAGI2_2, Q86UL8 = settings: plain residues with an end cap or a label only (N-terminal biotin on a linker: ado-ado)
SCRIB_1, Q14160 = settings: plain residues with an end cap or a label only (N-terminal biotin on a linker: ado-ado)
LNX1_1, Q8TBB1 = settings: plain residues with an end cap or a label only (N-terminal biotin on a linker: ado-ado)
RHPN1, Q8TCX5 = target: T7, RHPN1, Q8TCX5; settings: plain residues with an end cap or a label only (N-terminal biotin on a linker: ado-ado)
T7 sequence (Q8TCX5 508-602, limits assumed, looked up): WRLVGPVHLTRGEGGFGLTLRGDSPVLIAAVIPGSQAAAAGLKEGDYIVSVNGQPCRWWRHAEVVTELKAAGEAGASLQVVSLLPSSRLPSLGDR

PDZRN3_1, Q9UPQ7 = target: T8, PDZRN3_1, Q9UPQ7; settings: plain residues with an end cap or a label only (N-terminal biotin on a linker: ado-ado)
T8 sequence (Q9UPQ7 244-349, limits assumed, looked up): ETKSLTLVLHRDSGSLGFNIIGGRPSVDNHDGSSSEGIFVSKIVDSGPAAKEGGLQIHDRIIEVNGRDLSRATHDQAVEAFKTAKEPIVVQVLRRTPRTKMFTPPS

MAGI1_2, Q96QZ7 = settings: plain residues with an end cap or a label only (N-terminal biotin on a linker: ado-ado)
PTPN3, P26045 = settings: plain residues with an end cap or a label only (N-terminal biotin on a linker: ado-ado)
TJP1_2, Q07157 = settings: plain residues with an end cap or a label only (N-terminal biotin on a linker: ado-ado)
IL16_4, Q14005 = settings: plain residues with an end cap or a label only (N-terminal biotin on a linker: ado-ado)
LNX1_2, Q8TBB1 = settings: plain residues with an end cap or a label only (N-terminal biotin on a linker: ado-ado)
SNTG2, Q9NY99 = target: T9, SNTG2, Q9NY99; settings: plain residues with an end cap or a label only (N-terminal biotin on a linker: ado-ado)
T9 sequence (Q9NY99 68-166, limits assumed, looked up): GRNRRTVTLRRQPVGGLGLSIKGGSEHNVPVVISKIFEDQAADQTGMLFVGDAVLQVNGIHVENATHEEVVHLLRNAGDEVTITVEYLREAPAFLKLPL

ARHGAP21, Q5T5U3 = target: T10, ARHGAP21, Q5T5U3; settings: plain residues with an end cap or a label only (N-terminal biotin on a linker: ado-ado)
T10 sequence (Q5T5U3 45-169, limits assumed, looked up): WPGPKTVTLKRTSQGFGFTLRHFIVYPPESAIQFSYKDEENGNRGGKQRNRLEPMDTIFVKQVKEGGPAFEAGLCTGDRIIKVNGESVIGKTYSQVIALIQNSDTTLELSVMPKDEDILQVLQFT

HTRA2, O43464 = settings: plain residues with an end cap or a label only (N-terminal biotin on a linker: ado-ado)
Inadl_3, Q8NI35 = settings: plain residues with an end cap or a label only (N-terminal biotin on a linker: ado-ado)
HTRA3, P83110 = target: T11, HTRA3, P83110; settings: plain residues with an end cap or a label only (N-terminal biotin on a linker: ado-ado)
T11 sequence (P83110 354-453, limits assumed, looked up): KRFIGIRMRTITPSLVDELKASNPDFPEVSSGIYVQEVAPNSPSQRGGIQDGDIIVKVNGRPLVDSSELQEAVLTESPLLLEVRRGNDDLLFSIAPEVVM

PARD3B_1, Q8TEW8 = target: T12, PARD3B_1, Q8TEW8; settings: plain residues with an end cap or a label only (N-terminal biotin on a linker: ado-ado)
T12 sequence (Q8TEW8 196-299, limits assumed, looked up): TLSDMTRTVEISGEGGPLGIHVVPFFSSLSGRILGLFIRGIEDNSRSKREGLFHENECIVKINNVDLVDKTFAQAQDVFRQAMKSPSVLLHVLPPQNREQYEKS

Inadl_9, Q8NI35 = settings: plain residues with an end cap or a label only (N-terminal biotin on a linker: ado-ado)
LIN7B, Q9HAP6 = target: T13, LIN7B, Q9HAP6; settings: plain residues with an end cap or a label only (N-terminal biotin on a linker: ado-ado)
T13 sequence (Q9HAP6 88-185, limits assumed, looked up): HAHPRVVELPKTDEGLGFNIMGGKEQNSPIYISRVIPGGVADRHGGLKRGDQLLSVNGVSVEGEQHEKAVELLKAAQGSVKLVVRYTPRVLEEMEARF

LIN7C, Q9NUP9 = target: T14, LIN7C, Q9NUP9; settings: plain residues with an end cap or a label only (N-terminal biotin on a linker: ado-ado)
T14 sequence (Q9NUP9 88-185, limits assumed, looked up): T13 sequence (Q9HAP6 88-185, limits assumed, looked up) with A2S, D13E, V35I, V40I, Q65H, S79K, R89K, A96S

DLG2_3, Q15700 = settings: plain residues with an end cap or a label only (N-terminal biotin on a linker: ado-ado)
LAP2, Q96RT1 = settings: plain residues with an end cap or a label only (N-terminal biotin on a linker: ado-ado)
SCRIB_2, Q14160 = settings: plain residues with an end cap or a label only (N-terminal biotin on a linker: ado-ado)
PDLIM1, O00151 = settings: plain residues with an end cap or a label only (N-terminal biotin on a linker: ado-ado)
MPDZ_12, O75970 = target: T15, MPDZ_12, O75970; settings: plain residues with an end cap or a label only (N-terminal biotin on a linker: ado-ado)
T15 sequence (O75970 1857-1958, limits assumed, looked up): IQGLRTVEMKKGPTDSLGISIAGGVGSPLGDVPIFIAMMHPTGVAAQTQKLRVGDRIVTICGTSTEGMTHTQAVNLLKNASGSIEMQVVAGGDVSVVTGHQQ

PDZD7_3, Q9H5P4 = target: T16, PDZD7_3, Q9H5P4; settings: plain residues with an end cap or a label only (N-terminal biotin on a linker: ahx)
T16 sequence (Q9H5P4 857-944, limits assumed, looked up): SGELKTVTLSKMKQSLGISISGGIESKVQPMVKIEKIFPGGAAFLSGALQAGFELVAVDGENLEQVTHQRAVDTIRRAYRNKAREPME

MPDZ_10, O75970 = target: T17, MPDZ_10, O75970; settings: plain residues with an end cap or a label only (N-terminal biotin on a linker: ahx)
T17 sequence (O75970 1624-1722, limits assumed, looked up): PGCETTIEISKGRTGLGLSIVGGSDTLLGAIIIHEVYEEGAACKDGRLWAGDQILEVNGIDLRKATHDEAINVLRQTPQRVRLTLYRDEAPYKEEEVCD

[1] = plain residues with an end cap or a label only (N-terminal biotin on a linker: ahx)
[2] = plain residues with an end cap or a label only (N-terminal biotin on a linker: ado-ado)

MAGI2_4, Q86UL8, sequence (Q86UL8 772-865): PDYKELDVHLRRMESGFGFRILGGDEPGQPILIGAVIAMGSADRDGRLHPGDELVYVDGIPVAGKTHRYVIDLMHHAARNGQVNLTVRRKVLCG
HTRA1, Q92743, sequence (Q92743 360-477): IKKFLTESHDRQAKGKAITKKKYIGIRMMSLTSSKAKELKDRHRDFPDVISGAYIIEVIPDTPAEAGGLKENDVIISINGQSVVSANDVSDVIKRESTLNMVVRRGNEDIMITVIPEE
Inadl_3, Q8NI35, sequence (Q8NI35 359-469): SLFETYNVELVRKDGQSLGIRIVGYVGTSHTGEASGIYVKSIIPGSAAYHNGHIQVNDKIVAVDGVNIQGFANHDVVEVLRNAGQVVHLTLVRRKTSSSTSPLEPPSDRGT
MAGI2_2, Q86UL8, sequence (Q86UL8 410-522): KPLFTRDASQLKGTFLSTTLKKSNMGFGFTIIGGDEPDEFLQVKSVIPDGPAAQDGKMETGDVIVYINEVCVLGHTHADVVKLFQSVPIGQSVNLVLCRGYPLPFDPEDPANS
ARHGEF12, Q9NZN5-2, sequence (Q9NZN5 other isoform, or with tags, fused parts or gaps): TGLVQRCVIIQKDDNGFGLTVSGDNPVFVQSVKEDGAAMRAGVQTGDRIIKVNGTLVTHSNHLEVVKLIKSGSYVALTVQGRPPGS
IL16_4, Q14005, sequence (Q14005 1229-1329): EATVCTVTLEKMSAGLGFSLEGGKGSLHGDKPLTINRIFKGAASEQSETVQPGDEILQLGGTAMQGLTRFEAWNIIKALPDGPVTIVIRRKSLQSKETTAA
LNX1_2, Q8TBB1, sequence (Q8TBB1 371-470): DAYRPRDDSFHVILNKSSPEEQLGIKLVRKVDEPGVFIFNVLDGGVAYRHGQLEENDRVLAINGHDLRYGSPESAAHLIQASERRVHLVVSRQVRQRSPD
LNX1_1, Q8TBB1, sequence (Q8TBB1 261-371): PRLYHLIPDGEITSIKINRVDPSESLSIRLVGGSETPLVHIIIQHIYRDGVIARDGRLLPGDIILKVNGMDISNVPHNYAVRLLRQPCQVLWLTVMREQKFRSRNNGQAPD
PTPN3, P26045, sequence (P26045 505-587): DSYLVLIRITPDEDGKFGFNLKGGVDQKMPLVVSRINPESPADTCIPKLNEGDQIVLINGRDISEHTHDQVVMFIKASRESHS
SCRIB_2, Q14160, sequence (Q14160 857-960): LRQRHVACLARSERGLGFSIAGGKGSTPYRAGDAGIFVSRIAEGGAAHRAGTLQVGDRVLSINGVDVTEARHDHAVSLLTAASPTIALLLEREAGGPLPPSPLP
MAGI3_2, Q5TCQ9, sequence (Q5TCQ9 398-503): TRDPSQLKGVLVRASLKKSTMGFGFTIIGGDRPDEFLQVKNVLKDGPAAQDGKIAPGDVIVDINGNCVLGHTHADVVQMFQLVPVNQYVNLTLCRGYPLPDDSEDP
MAGI1_2, Q96QZ7, sequence (Q96QZ7 456-580): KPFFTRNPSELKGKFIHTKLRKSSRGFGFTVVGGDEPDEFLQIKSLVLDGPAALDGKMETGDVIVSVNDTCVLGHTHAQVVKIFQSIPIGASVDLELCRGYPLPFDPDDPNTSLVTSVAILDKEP
Inadl_9, Q8NI35, sequence (Q8NI35 1530-1615): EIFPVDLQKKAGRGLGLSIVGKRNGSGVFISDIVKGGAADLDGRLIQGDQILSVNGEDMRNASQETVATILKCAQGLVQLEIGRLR
LAP2, Q96RT1, sequence (Q96RT1 other isoform, or with tags, fused parts or gaps): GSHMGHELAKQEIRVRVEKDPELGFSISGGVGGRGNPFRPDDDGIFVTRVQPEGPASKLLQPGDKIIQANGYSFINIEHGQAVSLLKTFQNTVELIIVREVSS
HTRA2, O43464, sequence (O43464 355-458): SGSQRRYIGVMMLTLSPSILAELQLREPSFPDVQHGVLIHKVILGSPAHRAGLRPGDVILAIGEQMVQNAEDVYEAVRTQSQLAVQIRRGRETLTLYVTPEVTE
TJP2_1, Q9UDY2, sequence (Q9UDY2 24-128): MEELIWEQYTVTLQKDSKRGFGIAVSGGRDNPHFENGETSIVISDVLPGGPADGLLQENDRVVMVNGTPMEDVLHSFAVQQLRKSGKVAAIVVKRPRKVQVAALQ
SCRIB_1, Q14160, sequence (Q14160 718-814): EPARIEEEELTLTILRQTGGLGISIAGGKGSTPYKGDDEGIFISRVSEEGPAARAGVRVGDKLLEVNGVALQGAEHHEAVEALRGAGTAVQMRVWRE
Inadl_8, Q8NI35, sequence (Q8NI35 1425-1530): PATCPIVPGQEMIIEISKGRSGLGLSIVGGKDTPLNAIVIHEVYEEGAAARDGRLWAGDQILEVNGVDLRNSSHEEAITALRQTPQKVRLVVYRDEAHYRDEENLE
PARD3_3, Q8TEW0, sequence (Q8TEW0 582-685): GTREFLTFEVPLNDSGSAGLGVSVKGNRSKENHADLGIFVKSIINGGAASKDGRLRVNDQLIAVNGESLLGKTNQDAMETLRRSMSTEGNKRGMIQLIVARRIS
TJP1_2, Q07157, sequence (Q07157 181-274): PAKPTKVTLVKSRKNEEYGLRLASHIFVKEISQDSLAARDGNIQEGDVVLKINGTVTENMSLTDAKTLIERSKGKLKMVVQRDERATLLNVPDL
MAGI2_5, Q86UL8, sequence (Q86UL8 915-1017): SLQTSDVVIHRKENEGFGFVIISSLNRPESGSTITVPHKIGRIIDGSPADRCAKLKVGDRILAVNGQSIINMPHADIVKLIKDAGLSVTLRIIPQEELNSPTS
DLG4_1, P78352, sequence (P78352 62-152): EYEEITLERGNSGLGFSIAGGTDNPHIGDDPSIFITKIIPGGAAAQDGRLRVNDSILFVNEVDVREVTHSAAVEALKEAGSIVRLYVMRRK
PDLIM1, O00151, sequence (O00151 1-87): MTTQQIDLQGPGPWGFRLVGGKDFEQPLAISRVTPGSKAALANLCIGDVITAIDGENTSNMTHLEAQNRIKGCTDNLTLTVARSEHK

## LSDPSVSTVV [GRIN1, Q05586]
MAGI2_4, Q86UL8; [1]
  pKd: 3.83
SYNJ2BP, P57105
  pKd: 3.72
SNTB1, Q13884
  pKd: 3.55
PARD3_3, Q8TEW0
  pKd: 3.56
ARHGEF12, Q9NZN5-2
  pKd: 3.71
SNTA1, Q13424; [1]
  pKd: 3.68
SNX27, Q96L92
  pKd: 3.61
SHANK1, Q9Y566
  pKd: 3.72
DLG2_2, Q15700
  pKd: 3.71
DLG3_3, Q92796
  pKd: 3.57

## LPAHHNATRL [SLC34A1, Q06495]
MAGI2_5, Q86UL8
  pKd: 3.69
HTRA1, Q92743
  pKd: 3.73
Inadl_8, Q8NI35
  pKd: 3.52
MAGI3_2, Q5TCQ9
  pKd: 3.69
DFNB31_1, Q9P202
  pKd: 3.73
TJP2_1, Q9UDY2
  pKd: 3.54
SNTA1, Q13424; [2]
  pKd: 3.71
DLG4_1, P78352
  pKd: 3.51
MAGI2_2, Q86UL8
  pKd: 3.87
SCRIB_1, Q14160
  pKd: 3.82
LNX1_1, Q8TBB1
  pKd: 3.72
RHPN1, Q8TCX5
  pKd: 3.82
PDZRN3_1, Q9UPQ7
  pKd: 3.77
MAGI1_2, Q96QZ7
  pKd: 3.8

## VYPNAKVELV [PDLIM4_iso2, P50479]
PTPN3, P26045
  pKd: 3.87
MAGI2_4, Q86UL8; [2]
  pKd: 3.56
TJP1_2, Q07157
  pKd: 3.52
IL16_4, Q14005
  pKd: 3.83
LNX1_2, Q8TBB1
  pKd: 3.54
SNTG2, Q9NY99
  pKd: 3.48
ARHGAP21, Q5T5U3
  pKd: 3.8
HTRA2, O43464
  pKd: 3.69
Inadl_3, Q8NI35
  pKd: 3.54
HTRA3, P83110
  pKd: 3.62
PARD3B_1, Q8TEW8
  pKd: 3.6
Inadl_9, Q8NI35
  pKd: 3.57

## YLEPVLSSEL [ATP2A2, P16615]
HTRA1, Q92743
  pKd: 3.62
LIN7B, Q9HAP6
  pKd: 3.83
LIN7C, Q9NUP9
  pKd: 3.8
DLG2_3, Q15700
  pKd: 3.66
LAP2, Q96RT1
  pKd: 3.53
SCRIB_2, Q14160
  pKd: 3.56
PDLIM1, O00151
  pKd: 3.48
MPDZ_12, O75970
  pKd: 3.55
PDZRN3_1, Q9UPQ7
  pKd: 3.7

## PSASCAVTAA [PDLIM4, P50479]
PDZD7_3, Q9H5P4
  pKd: 3.48
MPDZ_10, O75970
  pKd: 3.76
